# Laboratory results taken from patent US20210221899A1 (published 2021).
# Substitutions are numbered along the chain they refer to.
# T1: canine NGF (canine, UniProt Q29074 110-229 (pig entry), limits assumed)
# T1 construct: The protein was secreted from CHO cells and purified; also called cNGF; canine β-NGF
# T1 chain: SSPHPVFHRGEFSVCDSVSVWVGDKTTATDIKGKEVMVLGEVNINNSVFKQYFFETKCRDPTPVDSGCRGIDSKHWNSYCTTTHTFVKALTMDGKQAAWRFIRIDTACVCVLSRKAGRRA
# T2: human NGF (human, UniProt P01138 122-241)
# T2 construct: also called human Nerve Growth Factor; hN
# T2 chain: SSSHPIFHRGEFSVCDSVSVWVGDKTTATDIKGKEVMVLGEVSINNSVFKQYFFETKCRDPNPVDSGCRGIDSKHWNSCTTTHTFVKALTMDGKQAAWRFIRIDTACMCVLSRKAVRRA
# B1: can9L12VL_L32A (antibody, V domains shown)
# VH: EVQLVESGGDLVKPGGSLRLSCVASGFTFSSHGMHWVRQSPGKGLQWVAVINSGGSSTYYTDAVKGRFTISRDNAKNTVYLQMNSLRAEDTAMYYCAKESVGGWEQLVGPHFDYWGQGTLVIVSS
# VL: QSVLTQPTSVSGSLGQRVTISCSGSTNNIGIAGASWYQLFPGKAPKLLVYGNGNRPSGVPDRFSGADSGDSVTLTITGLQAEDEADYYCQSFDTTLGAHVFGGGTHLTVL
# B2: can9L12VL_S91A (antibody, V domains shown)
# VH: B1 VH
# VL: B1 VL with A32L, S91A
# B3: can9L12VL_O90A (antibody, V domains shown)
# VH: B1 VH
# VL: B1 VL with A32L, Q90A
# B4: can9L12VL_N28A (antibody, V domains shown)
# VH: B1 VH
# VL: B1 VL with N28A, A32L
# B5: can9L12VL_T26A (antibody, V domains shown)
# VH: B1 VH
# VL: B1 VL with T26A, A32L
# B6: can9L12VL_T94A (antibody, V domains shown)
# VH: B1 VH
# VL: B1 VL with A32L, T94A
# B7: can9L12VL_N27A (antibody, V domains shown)
# VH: B1 VH
# VL: B1 VL with N27A, A32L
# B8: can9L12VL_N52A (antibody, V domains shown)
# VH: B1 VH
# VL: B1 VL with A32L, N52A
# B9: can9L12VL_T95A (antibody, V domains shown)
# VH: B1 VH
# VL: B1 VL with A32L, T95A
# B10: can9L12VL_L96A (antibody, V domains shown)
# VH: B1 VH
# VL: B1 VL with A32L, L96A
# B11: can9L12VL_V100A (antibody, V domains shown)
# VH: B1 VH
# VL: B1 VL with A32L, V100A
# B12: can48L2VH_F113A (antibody, V domains shown)
# VH: EVQLVESGGDLVKPGGSLRLSCVASGFTFSTYGINWVRQAPGKGLQWVAYISSGGSSTYYADPVKGRFTISRDDAKNMLYLQMNSLRAEDTAIYYCAGSRYTYAYGGGYEFHAWGQGTLVTVSS
# VL: QAVLNQPASVSGALGQKVTISCSGSTMDIDIFGVSWYQQLPGKAPKLLVDSDGDRPSGIPDRFSGSRSGNSGTLTITGLQAEDEADYHCQSGDSTLGALAIFGGGTHVTVL
# notes: CDR scanning mutant of ZTS-842 (48L2)
# B13: can48L2VH_S53A (antibody, V domains shown)
# VH: B12 VH with S53A, A113F
# VL: B12 VL
# notes: as for B12
# B14: can48L2VH_G54A (antibody, V domains shown)
# VH: B12 VH with G54A, A113F
# VL: B12 VL
# notes: as for B12
# B15: can48L2VH_T31A (antibody, V domains shown)
# VH: B12 VH with T31A, A113F
# VL: B12 VL
# notes: as for B12
# B16: can48L2VL_D28A (antibody, V domains shown)
# VH: B12 VH with A113F
# VL: B12 VL with D28A
# notes: as for B12
# B17: can48L2VL_A98L (antibody, V domains shown)
# VH: B12 VH with A113F
# VL: B12 VL with A98L
# notes: as for B12
# B18: can48L2VH_T58A (antibody, V domains shown)
# VH: B12 VH with T58A, A113F
# VL: B12 VL
# notes: as for B12
# B19: can48L2VH_H112A (antibody, V domains shown)
# VH: B12 VH with H112A, A113F
# VL: B12 VL
# notes: as for B12
# B20: can48L2VH_I51A (antibody, V domains shown)
# VH: B12 VH with I51A, A113F
# VL: B12 VL
# notes: as for B12
# B21: can48L2VH_S52A (antibody, V domains shown)
# VH: B12 VH with S52A, A113F
# VL: B12 VL
# notes: as for B12
# B22: can48L2VH_S56A (antibody, V domains shown)
# VH: B12 VH with S56A, A113F
# VL: B12 VL
# notes: as for B12
# B23: can48L2VH_G55A (antibody, V domains shown)
# VH: B12 VH with G55A, A113F
# VL: B12 VL
# notes: as for B12
# B24: can48L2VL_D52A (antibody, V domains shown)
# VH: B12 VH with A113F
# VL: B12 VL with D52A
# notes: as for B12
# B25: can48L2VH_S57A (antibody, V domains shown)
# VH: B12 VH with S57A, A113F
# VL: B12 VL
# notes: as for B12
# B26: can48L2VL_A100L (antibody, V domains shown)
# VH: B12 VH with A113F
# VL: B12 VL with A100L
# notes: as for B12
# B27: can48L2VL_D30A (antibody, V domains shown)
# VH: B12 VH with A113F
# VL: B12 VL with D30A
# notes: as for B12
# Target: T1, canine NGF
# Assay: SPR (Biacore T200), 100 nM mAb on NGF chip, similarity to parent mAb
# From the text: (§1) The region of an antibody responsible for antigen recognition represents the paratope. A paratope is created by a combination of amino acids in the complementarity determining regions (CDRs) of both the heavy and light chain variable regions. The binding between antibody and antigen is often mediated by side chains of CDR residues with side chains or carbohydrate moieties of the antigen. To help define critical side chains involved in antibody recognition alanine scanning mutagenesis was performed on each CDR residue in both the heavy and light chain, the technique as described by Cunningham and Wells (1989) Science, Vol. 244, Issue 4908, pp. 1081-1085. These mutants were then individually tested for the ability to NGF using the Biacore. […] Values were then compared to the wild type antibodies and are represented in the tables as a percent of wild type binding. The data presented in Tables 4 and 5 below are shown as a “percent similarity score” compared to wild type.
# (§2) The mean response unit of four replicates of the parent mAb+/−3 standard deviations was used to generate parameters to define a threshold of response units comprising both the on- and off-rates antibody binding. The percentage of data points for each mutant fell within this threshold was then used to define a “% similarity score”. […] Results from substitution of alanine at each CDR position
row,Binder,Percent Similarity Score (KD on cN)
1,B1,4.4%
2,B2,39.3%
3,B3,79.2%
4,B4,6.6%
5,B5,100%
6,B6,100%
7,B7,100%
8,B8,100%
9,B9,100%
10,B10,97%
11,B11,58.2%
12,B12,33.7%
13,B13,97.8%
14,B14,98.1%
15,B15,99.6%
16,B16,97%
17,B17,97.3%
18,B18,99.1%
19,B19,40.3%
20,B20,24.2%
21,B21,99.4%
22,B22,99.3%
23,B23,99.3%
24,B24,99.7%
25,B25,98.4%
26,B26,97.8%
27,B27,98.3%

# Target: T3, rat NGF (rat, UniProt P25427 122-241)
# T3 construct: also called rN
# T3 sequence (P25427 122-241 limits assumed): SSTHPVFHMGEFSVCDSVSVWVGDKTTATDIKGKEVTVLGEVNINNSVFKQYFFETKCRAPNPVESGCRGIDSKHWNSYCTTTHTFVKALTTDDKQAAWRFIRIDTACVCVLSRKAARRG
# Assay: as above
# From the text: as §1, §2
row,Binder,Percent Similarity Score (KD on rN)
1,B1,1.7%
2,B2,14.5%
3,B3,24.2%
4,B4,2.5%
5,B5,99.2%
6,B6,40%
7,B7,99.9%
8,B8,100%
9,B9,99.9%
10,B10,37%
11,B11,20.2%
12,B12,32.2%
13,B13,99.4%
14,B14,99.3%
15,B15,99.9%
16,B16,97.7%
17,B17,98.4%
18,B18,99.7%
19,B19,98.5%
20,B20,37.2%
21,B21,99.8%
22,B22,99.8%
23,B23,99.7%
24,B24,99.9%
25,B25,99.7%
26,B26,98.3%
27,B27,98.7%

# Target: T2, human NGF
# Assay: as above
# From the text: as §1, §2
row,Binder,Percent Similarity Score (KD on hN)
1,B1,1.5%
2,B2,11.6%
3,B3,19.3%
4,B4,2.1%
5,B5,100%
6,B6,52.5%
7,B7,100%
8,B8,100%
9,B9,100%
10,B10,34.2%
11,B11,15.7%
12,B12,98.5%
13,B13,100%
14,B14,100%
15,B15,99.9%
16,B16,99.6%
17,B17,99.8%
18,B18,99.9%
19,B19,51.2%
20,B20,81.8%
21,B21,100%
22,B22,99.9%
23,B23,100%
24,B24,100%
25,B25,100%
26,B26,99.9%
27,B27,99.7%
